Reference: the Immune Epitope Database (IEDB)
Blank lines part the entries; values can stand above or below the sequence they belong to.

How the values were obtained:
[1] = molecular target: HLA-A*01:01; assay: IEDB peptide-MHC binding, purified MHC/competitive/fluorescence; filed as Kd, often an IC50 or EC50 that approximates it; ≥ and ≤ were set here for values at or beyond the usual limits of such assays
[2] = molecular target: HLA-A*02:01; assay: as above; details: source organism: Corynebacterium glutamicum ATCC 13032
[3] = molecular target: HLA-A*02:03; assay: as above; details: source organism: Corynebacterium glutamicum ATCC 13032
[4] = molecular target: HLA-A*02:06; assay: as above; details: source organism: Corynebacterium glutamicum ATCC 13032
[5] = molecular target: HLA-A*02:11; assay: as above; details: source organism: Corynebacterium glutamicum ATCC 13032
[6] = molecular target: HLA-A*02:12; assay: as above; details: source organism: Corynebacterium glutamicum ATCC 13032
[7] = molecular target: HLA-A*02:16; assay: as above; details: source organism: Corynebacterium glutamicum ATCC 13032
[8] = molecular target: HLA-A*02:19; assay: as above; details: source organism: Corynebacterium glutamicum ATCC 13032
[9] = molecular target: HLA-A*02:50; assay: as above
[10] = molecular target: HLA-A*03:01; assay: as above; details: source organism: Corynebacterium glutamicum ATCC 13032
[11] = molecular target: HLA-A*11:01; assay: as above
[12] = molecular target: HLA-A*24:02; assay: as above; details: source organism: Corynebacterium glutamicum ATCC 13032
[13] = molecular target: HLA-A*26:01; assay: as above; details: source organism: Corynebacterium glutamicum ATCC 13032
[14] = molecular target: HLA-A*30:01; assay: as above
[15] = molecular target: HLA-A*31:01; assay: as above; details: source organism: Corynebacterium glutamicum ATCC 13032
[16] = molecular target: HLA-B*07:02; assay: as above
[17] = molecular target: HLA-B*15:01; assay: as above; details: source organism: Corynebacterium glutamicum ATCC 13032
[18] = molecular target: HLA-B*18:01; assay: as above; details: source organism: Corynebacterium glutamicum ATCC 13032
[19] = molecular target: HLA-B*27:05; assay: as above
[20] = molecular target: HLA-B*35:01; assay: as above; details: source organism: Corynebacterium glutamicum ATCC 13032
[21] = molecular target: HLA-B*40:01; assay: as above
[22] = molecular target: HLA-B*46:01; assay: as above; details: source organism: Corynebacterium glutamicum ATCC 13032
[23] = molecular target: HLA-B*58:01; assay: as above
[24] = molecular target: HLA-A*02:01; assay: IEDB peptide-MHC binding, purified MHC/direct/fluorescence; filed as Kd, often an IC50 or EC50 that approximates it; ≥ and ≤ were set here for values at or beyond the usual limits of such assays
[25] = molecular target: HLA-A*02:06; assay: as above; details: source organism: Yersinia pestis CA88-4125
[26] = molecular target: HLA-A*02:11; assay: as above; details: source organism: Yersinia pestis CA88-4125
[27] = molecular target: HLA-A*03:01; assay: as above; details: source organism: Yersinia pestis CA88-4125
[28] = molecular target: HLA-A*24:03; assay: as above; details: source organism: Yersinia pestis CA88-4125
[29] = molecular target: HLA-A*26:01; assay: as above; details: source organism: Yersinia pestis CA88-4125
[30] = molecular target: HLA-A*29:02; assay: as above; details: source organism: Yersinia pestis CA88-4125
[31] = molecular target: HLA-A*69:01; assay: as above
[32] = molecular target: HLA-B*18:01; assay: as above; details: source organism: Yersinia pestis CA88-4125
[33] = molecular target: HLA-B*27:03; assay: as above; details: source organism: Yersinia pestis CA88-4125
[34] = molecular target: HLA-B*39:01; assay: as above; details: source organism: Yersinia pestis CA88-4125
[35] = molecular target: HLA-B*46:01; assay: as above; details: source organism: Yersinia pestis CA88-4125
[36] = molecular target: HLA-B*51:01; assay: as above; details: source organism: Yersinia pestis CA88-4125
[37] = molecular target: HLA-B*57:01; assay: as above; details: source organism: Yersinia pestis CA88-4125
[38] = molecular target: HLA-A*23:01; assay: IEDB peptide-MHC binding, purified MHC/competitive/fluorescence; filed as Kd, often an IC50 or EC50 that approximates it; ≥ and ≤ were set here for values at or beyond the usual limits of such assays; details: source organism: Yersinia pestis CO92
[39] = molecular target: HLA-A*30:02; assay: as above; details: source organism: Yersinia pestis CO92
[40] = molecular target: HLA-A*66:01; assay: as above; details: source organism: Yersinia pestis CO92
[41] = molecular target: HLA-B*08:01; assay: as above; details: source organism: Yersinia pestis CO92
[42] = molecular target: HLA-B*14:02; assay: as above; details: source organism: Yersinia pestis CO92
[43] = molecular target: HLA-B*44:02; assay: as above; details: source organism: Yersinia pestis CO92
[44] = molecular target: HLA-B*53:01; assay: as above; details: source organism: Yersinia pestis CO92
[45] = molecular target: HLA-A*02:16; assay: IEDB peptide-MHC binding, purified MHC/direct/fluorescence; filed as Kd, often an IC50 or EC50 that approximates it; ≥ and ≤ were set here for values at or beyond the usual limits of such assays; details: source organism: Listeria monocytogenes serotype 4b str. H7858
[46] = source organism: Corynebacterium glutamicum ATCC 13032
[47] = source organism: Yersinia pestis CA88-4125
[48] = source organism: Yersinia pestis CO92
[49] = source organism: Listeria monocytogenes

Kd [1, 46]: ≥ 20 µM
Kd [2]: 0.976 µM
Kd [3]: 0.95 µM
Kd [4]: 0.0022 µM
Kd [5]: 0.0267 µM
Kd [6]: 0.8 µM
Kd [7]: 0.097 µM
Kd [8]: ≥ 20 µM
Kd [9, 46]: 0.0136 µM
Kd [10]: ≥ 20 µM
Kd [11, 46]: ≥ 20 µM
Kd [12]: ≥ 20 µM
Kd [13]: ≥ 20 µM
Kd [14, 46]: ≥ 20 µM
Kd [15]: ≥ 20 µM
Kd [16, 46]: ≥ 20 µM
Kd [17]: ≥ 20 µM
Kd [18]: ≥ 20 µM
Kd [19, 46]: ≥ 20 µM
Kd [20]: ≥ 20 µM
Kd [21, 46]: ≥ 20 µM
Kd [22]: ≥ 20 µM
Kd [23, 46]: ≥ 20 µM
Sequence: HLPELIWRS

Sequence: QQRPDLILV
Kd [24, 47]: 3.43 µM
Kd [25]: 0.17 µM
Kd [26]: ≥ 20 µM
Kd [27]: ≥ 20 µM
Kd [28]: ≥ 20 µM
Kd [29]: ≥ 20 µM
Kd [30]: 0.089 µM
Kd [31, 47]: ≥ 20 µM
Kd [32]: ≥ 20 µM
Kd [33]: ≥ 20 µM
Kd [34]: ≥ 20 µM
Kd [35]: ≥ 20 µM
Kd [36]: ≥ 20 µM
Kd [37]: ≥ 20 µM
Kd [1, 48]: ≥ 5 µM
Kd [11, 48]: ≥ 5 µM
Kd [38]: ≥ 5 µM
Kd [14, 48]: ≥ 5 µM
Kd [39]: ≥ 20 µM
Kd [40]: ≥ 5 µM
Kd [16, 48]: ≥ 5 µM
Kd [41]: ≥ 5 µM
Kd [42]: ≥ 5 µM
Kd [19, 48]: ≥ 5 µM
Kd [21, 48]: ≥ 5 µM
Kd [43]: ≥ 5 µM
Kd [44]: ≥ 5 µM
Kd [23, 48]: ≥ 5 µM

Sequence: ALVSEVTEV
Kd [24, 49]: 0.0797 µM
Kd [45]: 0.002 µM
Kd [31, 49]: 1.92 µM
Kd ([9]; source organism: Listeria monocytogenes EGD-e): ≤ 0.0001 µM
